Experimental data: US20160228506A1, “Compositions and Formulations for Prevention and Reduction of Tumorigenesis, Cancer Cell Proliferation and Invasion, and Methods of Production and Use Thereof in Cancer Treatment” (PRONUTRIA, INC., priority 2013, published 2016)
Substitutions are numbered along the chain they refer to. In names and notes the source's numbering stands.

Tests used:
Pancreatin = type: in vitro ADME, Porcine
Procedure: Control samples were protease-free.
Analyses were performed using an Agilent 1100 series system.

[1] = Intact half-life during simulated gastric fluid (SGF) digestion; details: for Half-life: purified proteins, chip electrophoresis
[2] = test system: SEQID-00338 kinase activity (AMP + ATP→ADP); assay: Kinase activity of SEQID-00338 (ADP-Glo Max Assay); type: biochemical; details: 7 μg/mL, 30 minute reaction at 30° C.
Procedure: The ADP-Glo™ Max Assay was obtained from Promega (Catalog number V7001, Madison, Wis.). Adenosine Monophosphate was obtained from Sigma-Aldrich (Catalog number A1752, St. Louis, Mo.). 5× Kinase Buffer was prepared w/ 1.211 g Tris Base (Catalog number BP152-2, Fisher Bioreagents, Pittsburgh, Pa.), 692 μL 12% hydrochloric acid solution (Catalog number BDH3026-500MLP, VWR, Radnor, Pa.), 10.0 mL 500 mM magnesium chloride (Catalog number BP214-500, Fisher Bioreagents, Pittsburgh, Pa.) and the volume brought to 50 mL with MilliQ water and filtered through 0.22 μm PES filter (Catalog number SCGP00525, Millipore, Billerica, Mass.) into a sterile 50 mL tube.
Twelve his-tag purified mutant proteins and the wild-type protein at 35 μg/mL in Tris buffer were serially diluted to 7.0 and 1.4 μg/mL. Prepared kinase reaction mix at 0.5 mM AMP/0.5 mM ATP to test for activity and at 0 mM AMP/0 mM ATP to assay background activity by diluting 5× Kinase Buffer with appropriate volumes of 10 mM AMP and 10 mM ATP in MilliQ water. Duplicate reactions were prepared by mixing 9 μL of the reaction mixture with 6 μL of diluted SEQID-00338, mixing by pipetting up and down and dispensing 5 μL into a 384-well white OptiPlate (PerkinElmer, Waltham, Mass.). An ADP standard curve was prepared by serially diluting 4 mM ADP in MilliQ water and adding kinase buffer to 1× for a standard at 0.0005, 0.001, 0.005, 0.01, 0.05, 0.1, 0.5, 1, 2, 3, and 4 mM ADP. The plate was covered with a foil plate seal and incubated at 30° C. for 30 min. Following the kinase reaction, 5 μL of ADP-Glo™ Reagent was added to each well. The plate was sealed with a foil plate seal and placed on a horizontal plate shaker at 450 rpm for 2 minutes at room temperature. The plate was removed from the plate shaker and incubated at room temperature for 40 minutes. The plate was then centrifuged for 15 seconds at 1109×rcf and 10 μL of ADP-Glo™ Max Detection Reagent was added. The plate was sealed with a foil plate seal and shaken on a horizontal plate shaker at 450 rpm at room temperature for 2 minutes. The plate was then removed from the plate shaker and incubated at room temperature for 60 minutes. The plate was centrifuged for 15 seconds at 1109×rcf and the luminescence read on an EnspireAlpha plate reader (PerkinElmer, Waltham, Mass.).
The ADP standard curve was used to determine the concentration of ADP in sample wells in the presence or absence of substrate. Concentrations were determined by performing a non-linear 4 parameter logistic on the X=log(X) transformed ADP standard luminescence values. […] Where the background concentration of ADP in the absence of substrate was calculable the average of those values were subtracted from the calculated ADP concentration in the substrate incubated wells. Activity knock out was calculated by percentage activity relative to purified wild-type protein at the same concentration.

[3] = SGF digest of 168 nutritive polypeptide library, intact protein by LC-MS/MS; type: in vitro ADME; details: for % Intact Protein at 10 min: 168 nutritive polypeptide library SGF digest, LC-MS/MS spectral counts; for % Remaining at 10 min: 168 nutritive polypeptide library, LC-MS/MS
Outline: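 Spectral-count ratios (10 min vs 0 min, peak gel fraction plus neighbours) give the percent of each protein left intact after SGF digestion of a pooled, IMAC-purified 168-member recombinant library. Samples were gel-fractionated, trypsinised in-gel and run on Orbitrap nanoLC-MS/MS, requiring two unique peptides at 1% FDR.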

[4] = Thermostability, temperature of aggregation (ProteoStat Thermal Shift); type: physicochemical; parameters: key to Tagg: temperature in °C
Outline: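 Protein at about 10 mg/ml in citric acid/dibasic sodium phosphate buffers spanning pH 2.8–7.1, with 1× ProteoStat TS detection reagent. Samples heated from 25 °C to 95 °C at 0.5 °C per 30 sec in a real-time PCR thermocycler. Aggregation followed by fluorescence through a Texas Red filter.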

pH solubility = type: physicochemical; details: for pH Range where Protein is >80% detected as Soluble and A650 <1 OD: Low: lower pH; for pH Range where Protein is >80% detected as Soluble and A650 <1 OD: High: upper pH
Outline: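 Protein at final 5 to 30 mg/ml in citrate/phosphate buffer mixtures (8 M urea control) was shaken 10 min at room temperature and turbidity read at A650. After 10 min 1100×g centrifugation, supernatant protein was measured by Bradford, electrophoresis and/or A280, giving the pH range above 80% solubility.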

[5] = SGF pH 1.5, pepsin:polypeptide 1:20 w/w, 37° C., intact protein
[6] = native and modified forms of SEQID-00363, gel electrophoresis

B1: SEQID-00298 (BS): nutritive polypeptide naturally produced in Cow (protein, listed as Bos taurus)
chain: MGLSDGEWQLVLNAWGKVEADVAGHGQEVLIRLFTGHPETLEKFDKFKHLKTEAEMKASEDLKKHGNTVLTALGGILKKKGHHEAEVKHLAESHANKHKIPVKYLEFISDAIIHVLHAKHPSDFGADAQAAMSKALELFRNDMAAQYKVLGFHG
Free Leu (μM) at 120 min time point of Pancreatin digest (Pancreatin): 1030.8 µM | SGF Half-life (t½) [1, 5]: 6 s

B2: R42L: single amino acid mutant of SEQID-00338, position 42 (protein, listed as Saccharomyces cerevisiae)
chain: MSSSESIRMVLIGPPGAGKGTQAPNLQERFHAAHLATGDMLLSQIAKGTQLGLEAKKIMDQGGLVSDDIMVNMIKDELTNNPACKNGFILDGFPRTIPQAEKLDQMLKEQGTPLEKAIELKVDDELLVARITGRLIHPASGRSYHKIFNPPKEDMKDDVTGEALVQRSDDNADALKKRLAAYHAQTEPIVDFYKKTGIWAGVDASQPPATVWADILNKLGKD
modifications: source: /note="strain ATCC 204508 / S288c"
AVG percent activity relative to purified wild-type protein [2]: 1.7%

B3: D91F: single amino acid mutant of SEQID-00338, magnesium ion binding site position 91 (protein, listed as Saccharomyces cerevisiae)
chain: B2 chain with L42R, D91F
modifications: source: /note="strain ATCC 204508 / S288c"
AVG percent activity relative to purified wild-type protein [2]: 0.9%

B4: R42T: single amino acid mutant of SEQID-00338, position 42 (protein, listed as Saccharomyces cerevisiae)
chain: B2 chain with L42T
modifications: source: /note="strain ATCC 204508 / S288c"
AVG percent activity relative to purified wild-type protein [2]: 1.9%

B5: D91I: single amino acid mutant of SEQID-00338, position 91 (protein, listed as Saccharomyces cerevisiae)
chain: B2 chain with L42R, D91I
modifications: source: /note="strain ATCC 204508 / S288c"
AVG percent activity relative to purified wild-type protein [2]: 0.4%

B6: R42Q: single amino acid mutant of SEQID-00338, position 42 (protein, listed as Saccharomyces cerevisiae)
chain: B2 chain with L42Q
modifications: source: /note="strain ATCC 204508 / S288c"
AVG percent activity relative to purified wild-type protein [2]: 1.2%

B7: Reduced and alkylated SEQID-00363: SEQID-00363 with disulfide bonds reduced and alkylated (protein)
chain: ATLDSWLSNEATVARTAILNNIGADGAWVSGADSGIVVASPSTDNPDYFYTWTRDSGLVLKTLVDLFRNGDTSLLSTIENYISAQAIVQGISNPSGDLSSGAGLGEPKFNVDETAYTGSWGRPQRDGPALRATAMIGFGQWLLDNGYTSTATDIVWPLVRNDLSYVAQYWNQTGYDLWEEVNGSSFFTIAVQHRALVEGSAFATAVGSSCSWCDSQAPEILCYLQSFWTGSFILANFDSSRSGKDANTLLGSIHTFDPEAACDDSTFQPCSPRALANHKEVVDSFRSIYTLNDGLSDSEAVAVGRYPEDTYYNGNPWFLCTLAAAEQLYDALYQWDKQGSLEVTDVSLDFFKALYSDAATGTYSSSSSTYSSIVDAVKTFADGFVSIVETHAASNGSMSEQYDKSDGEQLSARDLTWSYAALLTANNRRNSVVPASWGETSASSVPGTCAATSAIGTYSSVTVTSWPSIVATGGTTTTATPTGSGSVTSTSKTTATASKTSTSTSSTSCTTPTAVAVTFDLTATTTYGENIYLVGSISQLGDWETSDGIALSADKYTSSDPLWYVTVTLPAGESFEYKFIRIESDDSVEWESDPNREYTVPQACGTSTATVTDTWR
modifications: disulfides reduced and alkylated; Aspergillus niger
Free Leu (μM) at 120 min time point of Pancreatin digest (Pancreatin): 598.1 µM | SGF Half-life (t½) [1, 6]: 1220 s

B8: Heat-denatured SEQID-00363: SEQID-00363 30 g/L in 10% PBS rapidly heated to 95° C. (protein)
chain: B7 chain
modifications: heat-denatured; Aspergillus niger
Free Leu (μM) at 120 min time point of Pancreatin digest (Pancreatin): 763.5 µM | SGF Half-life (t½) [1, 6]: 1220 s

B9: SEQID-00485: nutritive polypeptide naturally produced in Chickpea, recombinantly expressed in E. coli (protein, listed as Cicer arietinum)
chain: MTKTGYINAAFRSSRNNEAYLFINDKYVLLDYAPGTSNDKVLYGPSFVRDGYKSLAKTIFGTYGIDCSFDTEYNEAFIFYENFCARIDYAPHSDKDKIISGPKKIADMFPFFKGTVFENGIDAAFRSTKGKEVYLFKGDKYARIDYLTNRLVQNIKSISDGFPCLRGTIFEAGMDSAFASHKTNEAYLFKGEYYARINFTPGSTNDIMGGVKKTLDYWPSLRGIIPLE
Free Leu (μM) at 120 min time point of Pancreatin digest (Pancreatin): 764.9 µM | % Intact Protein at 10 min [3]: 0% | % Remaining at 10 min [3]: 0% | SGF Half-life (t½) [1, 5]: 30 s | Half-life [1]: 30 s | Tagg ([4]; pH 5.0): 31.5 | Tagg ([4]; pH 5.6): 34.5 | Tagg ([4]; pH 6.0): 36 | Tagg ([4]; pH 6.5): 36.5 | Tagg ([4]; pH 7.1): 36 | pH Range where Protein is >80% detected as Soluble and A650 <1 OD: Low (pH solubility): 4.6 | pH Range where Protein is >80% detected as Soluble and A650 <1 OD: Other (pH solubility; other pH): 2.8 | pH Range where Protein is >80% detected as Soluble and A650 <1 OD: High (pH solubility): 7.1

B10: SEQID-00605: nutritive polypeptide naturally produced in Mushroom, recombinantly expressed in E. coli (protein, listed as Agaricus bisporus)
chain: MLEFTLNDGNRIPAIAFGTGTALYNQDASAFVRLAIETGITHLDGAQMYENEETLGKGIKSSGKPRSELFITTKLHILKPGQTVRETLVESLGKIGVDYVDLFLIHDPTANRKEATLSEIWSQLEALKNEGLTKSIGVSNFKVEDLNEILPGAKIIPAVNQIEFHPYVLKAASPIIELCKAKGIIVASYGGQTPIVRATDGPLKDLLPKIRERLEQTRGSPVTEGQVLTKWLLQKNVIAISTSSKESRIKEFLSTVDVPDLTKQEIESIDNAGSTIHKRIYMKHIFNE
modifications: source: /note="var. bisporus"; source: /note="strain H97 / ATCC MYA-4626 / FGSC 10389"
notes: nutritive polypeptide naturally produced in Mushroom, recombinantly expressed in E. coli
Free Leu (μM) at 120 min time point of Pancreatin digest (Pancreatin): 937.1 µM | % Intact Protein at 10 min [3]: 0% | % Remaining at 10 min [3]: 0% | SGF Half-life (t½) [1, 5]: 12 s | Half-life [1]: 12 s | Tagg ([4]; pH 4.6): 40.5 | Tagg ([4]; pH 5.0): 33.5 | Tagg ([4]; pH 5.6): 37 | Tagg ([4]; pH 6.0): 44.5 | Tagg ([4]; pH 6.5): 38.5 | Tagg ([4]; pH 7.1): 39 | pH Range where Protein is >80% detected as Soluble and A650 <1 OD: Low (pH solubility): 5.6 | pH Range where Protein is >80% detected as Soluble and A650 <1 OD: High (pH solubility): 7.1
